{"source": "patent US20250236644A1", "about": "(University of Washington, published 2025)", "assay_in_all_cases": "FP titration, 1 nM peptide, hinge varied", "key": {"[1]": {"target": "T1, TAMRA-labeled effector peptide cs074B (5(6)-TAMRA label coupled on resin after synthesis)", "T1 construct": "Chemically synthesized; also called TAMRA-cs074B", "T1 peptide": "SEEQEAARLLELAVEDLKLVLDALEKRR", "description": "(§1) FIG. 10. Redesign of hinges to bind other target peptides. An experimentally tested hinge (top, cs201) is redesigned using a one-sided two-state design approach to bind to different target peptides. Hinges csw13 and csw20 are designed to bind to peptides cs221B and cs074B, respectively, while having a backbone conformation that is similar to the parent cs201 that binds cs201B. Left: design models, right: FP titrations using 1 nM peptide (cs201B, cs221B, cs074B, js007B) and varying concentrations of hinge (from top to bottom: cs201, csw13, csw20). csw13 is an example of a successful orthogonal redesign that specifically binds the new target peptide cs221B while not binding the parent target peptide cs201B or the off-target peptides cs074B or js007B. csw20 is a less orthogonal example that binds the new target peptide cs074B most strongly but still binds to the parent-target peptide cs201B and to the off-target peptide cs221B albeit weaker than the new target.\n(§2) All FP measurements were performed at 25° C. in 96-well plates (Corning 3686) using a Synergy Neo2™ plate reader and a 530/590 nm filter cube. The buffer for all FP measurements was 20 mM Tris-HCl, 100 mM NaCl, 0.05% v/v TWEEN20 at pH 8. Titrations were carried out in 96-well format, with 4 replicates per plate and 24 data points per titration (23 steps of two-fold serial dilution of hinges in the presence of TAMRA-labeled peptide at a constant concentration between 0.1 nM and 1 nM) with a final sample volume of 80 μl per well. Titration plates were incubated overnight at room temperature before measuring to ensure complete equilibration. The polarization signal S (as calculated by the Neo2™ software) was fitted to the equation"}, "[2]": {"target": "T2, TAMRA-labeled effector peptide cs201B (5(6)-TAMRA label coupled on resin after synthesis)", "T2 construct": "also called TAMRA-cs201B", "T2 peptide": "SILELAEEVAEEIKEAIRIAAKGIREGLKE", "description": "as §1, §2"}, "[3]": {"target": "T3, TAMRA-labeled effector peptide cs221B (5(6)-TAMRA label coupled on resin after synthesis)", "T3 construct": "also called TAMRA-cs221B", "T3 peptide": "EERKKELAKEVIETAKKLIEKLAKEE", "description": "as §1, §2"}, "[4]": {"target": "T4, TAMRA-labeled effector peptide js007B (5(6)-TAMRA label coupled on resin after synthesis)", "T4 construct": "also called TAMRA-js007B", "T4 peptide": "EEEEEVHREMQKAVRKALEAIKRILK", "description": "as §1, §2"}}, "data": [{"binder": "swapped target hinge csw13 (designed binder) MSGNEEVKKLVEEAKKYLKEAEEYIKKAKKTGNEELLEKALKLLEKALELVKKAIELDPNNKEAIEQAVEIARALNEVAELLIEEAKKTGNEELLEKALEALEAANEALKLAIENNENDKELLAEIAVELAEVGVLLAEVLIEEAKKTGDPELLKLALEVLEAAVEALELALKLDPNNEEAVELAEEAAKLLEEVAKELKEEAKKTGDPELEKLAKEAEELAKRAKELAERQRGSGSHHWGSTHHHHHH", "values": [{"measurement": "binding result", "setting": "[1]", "result": "no binding"}, {"measurement": "binding result", "setting": "[2]", "result": "no binding"}, {"measurement": "binding result", "setting": "[3]", "result": "binds"}, {"measurement": "binding result", "setting": "[4]", "result": "no binding"}]}]}
